In paper PMC10998907 (2024):

What was measured:
Assay in all cases: BLI
[1] = biological target: T1, HeV-RBP global head domain, His-tagged (Hendra virus, UniProt O89343 183-602, biotinylated for BLI only (EZ-link Sulfo-NHS-LC-Biotin))
[2] = biological target: T2, NiV-RBP global head domain, His-tagged (Nipah virus, UniProt Q9IH62, biotinylated for BLI only (EZ-link Sulfo-NHS-LC-Biotin))
T2 chain: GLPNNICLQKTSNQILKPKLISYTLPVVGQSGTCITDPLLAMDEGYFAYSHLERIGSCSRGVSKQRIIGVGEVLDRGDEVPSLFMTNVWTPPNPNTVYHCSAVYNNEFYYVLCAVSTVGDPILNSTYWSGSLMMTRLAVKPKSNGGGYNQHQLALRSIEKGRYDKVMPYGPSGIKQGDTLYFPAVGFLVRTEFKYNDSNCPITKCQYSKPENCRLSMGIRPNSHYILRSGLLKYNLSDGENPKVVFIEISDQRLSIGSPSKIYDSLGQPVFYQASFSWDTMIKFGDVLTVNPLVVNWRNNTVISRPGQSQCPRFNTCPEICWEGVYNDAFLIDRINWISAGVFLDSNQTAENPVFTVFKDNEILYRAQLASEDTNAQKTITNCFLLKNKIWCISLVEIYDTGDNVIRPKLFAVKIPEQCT

[3] = biological target: T1, HeV-RBP global head domain, His-tagged; remark: listed apart in the source
[4] = biological target: T2, NiV-RBP global head domain, His-tagged

T1 sequence (O89343 183-602): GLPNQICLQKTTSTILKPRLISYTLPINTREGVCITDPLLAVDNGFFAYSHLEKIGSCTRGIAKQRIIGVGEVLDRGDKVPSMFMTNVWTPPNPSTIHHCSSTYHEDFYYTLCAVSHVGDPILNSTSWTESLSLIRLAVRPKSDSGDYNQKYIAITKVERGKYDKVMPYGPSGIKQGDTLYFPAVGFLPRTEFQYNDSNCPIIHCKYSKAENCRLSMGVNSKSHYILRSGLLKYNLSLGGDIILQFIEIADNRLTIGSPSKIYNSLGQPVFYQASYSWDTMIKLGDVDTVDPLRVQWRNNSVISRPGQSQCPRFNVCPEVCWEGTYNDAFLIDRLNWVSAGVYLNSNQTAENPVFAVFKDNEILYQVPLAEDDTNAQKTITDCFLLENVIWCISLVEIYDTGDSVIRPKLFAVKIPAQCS

B1: 41-6 Fab fragment (Fab, V domains shown)
VH: EVQLVQSGGGLVQPGGSLRLSCAASGFTVSSNYMSWVRQAPGKGLEWVSAISGSGGSTYYADSVKGRFTISRDNSKNTLYLQMNSLRAEDTAVYYCARDREDIVVVPAPRGYYYYYYMDVWGQGTTVTVSS
VL: QSVVTQPPSVSAAPGQKVTISCSGSSSNIGTNHLSWYQQVPGTAPKLLIYDNNKRPSGIPDRFSGSKSGTSASLAISGLQSEDEADYYCATWDDSLHAWVFGGGTKLTVL
**Q.** With B1 as the binder, how does the Kd [1] read?
**A.** 5.4 nM

**Q.** And the Kd [2]?
**A.** 3.6 nM

**Q.** And the koff [3]?
**A.** 0.00018 s⁻¹

**Q.** What about the koff [4] of the same binder?
**A.** 0.0002 s⁻¹
